The values that follow come from US20240293499A1.

In assay [1] the target is T1, murine VISTA on mouse splenocytes (macrophages, neutrophils, CD4+ T cells) (mouse) (UniProt Q9D659).
T1 sequence (looked up): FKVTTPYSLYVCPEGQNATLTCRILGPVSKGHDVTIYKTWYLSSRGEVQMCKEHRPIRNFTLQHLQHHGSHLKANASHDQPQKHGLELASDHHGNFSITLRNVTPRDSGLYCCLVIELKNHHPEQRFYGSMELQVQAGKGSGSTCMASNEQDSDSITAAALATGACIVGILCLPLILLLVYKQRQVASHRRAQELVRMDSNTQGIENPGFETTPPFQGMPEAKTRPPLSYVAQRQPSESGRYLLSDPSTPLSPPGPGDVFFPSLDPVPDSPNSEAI
In words: cell-based or functional assay.

The target in assay [2] is hVISTA-COMP-his, pentameric form comprising the extracellular IgV domain of human VISTA (human) (UniProt Q9H7M9). In words: SPR (BIAcore T200), single-cycle kinetics; hVISTA-COMP-his captured on anti-His chip, mAb as analyte; 1:1 Langmuir fit.
Assay [3] concerns the target T2, mVISTA-COMP-his, pentameric form comprising the extracellular IgV domain of murine VISTA (mouse) (UniProt Q9D659).
T2 sequence (Q9D659 whole entry, looked up): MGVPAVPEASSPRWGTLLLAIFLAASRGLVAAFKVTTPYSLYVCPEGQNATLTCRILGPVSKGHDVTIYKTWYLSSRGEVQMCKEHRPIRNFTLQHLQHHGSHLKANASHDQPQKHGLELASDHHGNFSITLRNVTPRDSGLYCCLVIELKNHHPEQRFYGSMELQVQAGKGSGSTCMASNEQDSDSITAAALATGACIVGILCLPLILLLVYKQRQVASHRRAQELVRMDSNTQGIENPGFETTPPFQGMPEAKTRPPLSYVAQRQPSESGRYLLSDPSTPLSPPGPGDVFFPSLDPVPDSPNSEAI
In words: SPR (BIAcore T200), single-cycle kinetics; mVISTA-COMP-his captured on anti-His chip, mAb as analyte; 1:1 Langmuir fit. For orientation: SPR reads the build-up and loss of mass on a sensor chip optically.

In assay [4] the target is hVISTA-COMP-his, pentameric form comprising the extracellular IgV domain of human VISTA (human) (UniProt Q9H7M9). As to the kind of experiment: SPR (BIAcore T200), single-cycle kinetics, hVISTA-COMP-his captured on anti-His chip, mAb injected at 20, 40, 80, 160, 320 nM, 1:1 fit.
The target of assay [5] is T2, mVISTA-COMP-his, pentameric form comprising the extracellular IgV domain of murine VISTA (mouse). In words: SPR (BIAcore T200), single-cycle kinetics, mVISTA-COMP-his captured on anti-His chip, mAb injected at 20, 40, 80, 160, 320 nM, 1:1 fit.

Broadly, the Kd is the constant that tells how readily two partners part at equilibrium. Low readings indicate tighter binding, high ones weaker binding. Usually koff stands for a measure of how fast the partners let go of each other. The kon is a measure of how fast the partners come together. Low readings indicate slow association, high ones fast association.

hVISTA-COMP-his, pentameric form comprising the extracellular IgV domain of human VISTA (human), sequence (Q9H7M9 33-194): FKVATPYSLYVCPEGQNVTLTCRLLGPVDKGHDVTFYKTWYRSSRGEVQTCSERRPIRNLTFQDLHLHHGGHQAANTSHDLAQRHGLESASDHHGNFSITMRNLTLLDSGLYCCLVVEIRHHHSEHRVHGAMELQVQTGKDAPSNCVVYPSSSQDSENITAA

B1: rat anti-hmVISTA mAb 7C6 (antibody, part only; not given: light chain, rat IgG2a, V domains shown, part only)
VH: QVQLQQSGAELAKPGSSVKISCKASGYTFTSYYISWIKQTTGQGLEYIGYINTGSGGTNYNEKFKGKATLTVDKSSSTAFMQLSSLTPDDSAVYYCAREGTFYSGDVGYWYFDFWGPGSMVTVSS
B1 showed a reduction of proliferation of ConA-stimulated CD4+ T cells, mouse splenocytes in assay [1] of 4%. Further, the dissociation constant Kd in assay [2] is 840 nM; in assay [3] it was 3 nM; in assay [4], 838 nM; in assay [5] it was 3 nM. In addition, the off-rate (koff) in assay [4] amounted to 0.000331 s⁻¹; in assay [5], 0.000177 s⁻¹. The results for the kon in assay [4] and in assay [5] were 395 M⁻¹ s⁻¹ and 59000 M⁻¹ s⁻¹, respectively.
